The target of test [1] is T1, Pra1 on C. albicans strain SC5314 hyphae (Candida albicans, UniProt P87020 16-299).
T1 construct: whole, on cells; The stained target is the whole fungal cell; also called C. albicans hyphae
T1 sequence (looked up): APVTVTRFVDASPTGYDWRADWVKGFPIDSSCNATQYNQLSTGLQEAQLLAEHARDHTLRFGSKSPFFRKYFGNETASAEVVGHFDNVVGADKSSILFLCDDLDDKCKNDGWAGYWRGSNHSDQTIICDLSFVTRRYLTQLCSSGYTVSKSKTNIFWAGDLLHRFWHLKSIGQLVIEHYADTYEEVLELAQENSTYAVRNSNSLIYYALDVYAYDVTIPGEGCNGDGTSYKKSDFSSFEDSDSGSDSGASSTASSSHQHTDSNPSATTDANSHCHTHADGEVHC
Description: flow cytometry and confocal microscopy, summary.

The target of test [2] is T2, Tef1 on C. albicans strain SC5314 hyphae (Candida albicans, UniProt P0CY35 2-458).
T2 construct: whole, on cells; The stained target is the whole fungal cell; also called C. albicans hyphae
T2 sequence (looked up): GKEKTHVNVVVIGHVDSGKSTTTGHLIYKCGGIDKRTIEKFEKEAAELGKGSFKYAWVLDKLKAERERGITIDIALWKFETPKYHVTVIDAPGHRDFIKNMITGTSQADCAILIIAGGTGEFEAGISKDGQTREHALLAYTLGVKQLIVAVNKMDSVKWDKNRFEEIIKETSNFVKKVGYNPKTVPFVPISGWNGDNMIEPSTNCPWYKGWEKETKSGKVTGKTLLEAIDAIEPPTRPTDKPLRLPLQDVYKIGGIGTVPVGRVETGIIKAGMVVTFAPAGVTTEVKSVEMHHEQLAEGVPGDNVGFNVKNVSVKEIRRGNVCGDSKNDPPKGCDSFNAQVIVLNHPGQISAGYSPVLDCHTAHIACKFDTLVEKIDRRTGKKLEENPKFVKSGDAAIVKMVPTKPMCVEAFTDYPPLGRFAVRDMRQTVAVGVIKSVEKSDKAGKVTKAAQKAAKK
Description: flow cytometry on C. albicans. Background: A flow cytometer gives signals particle by particle.

B1: monoclonal antibody 8C3 directed against Pra1 of Candida albicans, produced by the hybridoma cell line DSM ACC 3369 (antibody, mouse IgG1, kappa, V domains shown)
VH: EVQLVESGGDLVKPGGSLKLSCAASGFTFSTYGMSWVRQTPDKRLEWVATISSGGSYTYYPDSVKGRFTISRDNVKNTLYLQMSSLKSEDTAMYYCARQGLDDNYAEWYFDVWGAGTTVTVSS
VL: DILLTQSPATLSVTPGETVSLSCRASQSIYKNLHWYQQKSHRSPRLLIKYASDSISGIPSRFTGSGSGTDYTLSINSVKPEDEGKYYCLQGFSTPWTFGGGTKLEIKR
notes: Mouse IgG1, kappa from hybridoma; also called mAb 8C3; anti-Pra1 mAb 8C3
Regarding B1, in test [1], the binding result is listed as “binds”.

B2: monoclonal antibody 5E1 directed against Tef1 of Candida albicans, produced by the hybridoma cell line DSM ACC 3368 (antibody)
heavy: EVKLVESGGGLVKPGGSLKLSCAASGFTFSSYAMSWVRQTPEKRLEWVASISSGGSTYYPDSVKGRFTISRDNARNILYLQMSSLRSEDTAMYYCARGYDGYDYWGQGTTLTVSSESQSFPNVFPLVSCESPLSDKNLVAMGCLARDFLPSTISFTWNYQNNTEVIQGIRTFPTLRTGGKYLATSQVLLSPKSILEGSDEYLVCKIHYGGKNRDLHVPIPAVAEMNPNVNVFVPPRDGFSGPAPRKSKLICEATNFTPKPITVSWLKDGKLVESGFTTDPVTIENKGSTPQTYKVISTLTISEIDWLNLNVYTCRVDHRGLTFLKNVSSTCAASPSTDILTFTIPPSFADIFLSKSANLTCLVSNLATYETLNISWASQSGEPLETKIKIMESHPNGTFSAKGVASVCVEDWNNRKEFVCTVTHRDLPSPQKKFISKPNEVHKHPPAVYLLPPAREQLNLRESATVTCLVKGFSPADISVQWLQRGQLLPQEKYVTSAPMPEPGAPGFYFTHSILTVTEEEWNSGETYTCVVGHEALPHLVTERTVDKSTGKPTLYNVSLIMSDTGGTCY
light: not shown
notes: Mouse IgM, kappa from hybridoma; also called mAb 5E1; anti-Tef1 mAb 5E1
Consider B2, for which the binding result in test [2] is reported as “binds”.

The values are drawn from patent US20240352099A1 (JULIUS MAXIMILIANS UNIVERSIT T W RZBURG, published 2024).
